Experimental data taken from the supplement of paper PMC10065799, “High-throughput profiling of sequence recognition by tyrosine kinases and SH2 domains using bacterial peptide display” (eLife, 2023).

Tests used:
AncSZ = experiment: phosphorylation enrichment, bacterial display (enrichment ratio); higher = better substrate or ligand; peptides without Tyr show the background
EPHB1 = EPHB1 (UniProt P54762); experiment: as above
EPHB2 = EPHB2 (UniProt P29323); experiment: as above
FGFR1 = FGFR1 (UniProt P11362); experiment: as above
FGFR3 = FGFR3 (UniProt P22607); experiment: as above
Fer (mouse) = experiment: as above
Fes = Fes (UniProt P07332); experiment: as above
Fyn = Fyn (UniProt P06241); experiment: as above
Hck = Hck (UniProt P08631); experiment: as above
Jak2 = Jak2 (UniProt O60674); experiment: as above
MERTK = MERTK (UniProt Q12866); experiment: as above
c-Abl (mouse) = experiment: as above
c-Src = experiment: as above
Grb2 SH2 = Grb2 SH2 (UniProt P62993); experiment: SH2 binding enrichment of the phosphorylated peptide, bacterial display (enrichment ratio); higher = better substrate or ligand; peptides without Tyr show the background
SHP2-C SH2 = experiment: as above
c-Src SH2 = experiment: as above
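Throughout, for SH2 binding enrichment of the phosphorylated peptide, bacterial display: peptide library displayed on the E. coli surface as eCPX fusions, selected cells deep-sequenced, score is each peptide's frequency after selection divided by its frequency in the input.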
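Throughout, for phosphorylation enrichment, bacterial display: 11-residue human phosphosite peptides and single-mutation variants displayed on the E. coli surface, counted by deep sequencing, each peptide's frequency after selection divided by its frequency in the unselected input library; frequency after pTyr selection over input frequency; kinase dosed for 20-30% of maximal phosphorylation in three min.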

Jak2, sequence (O60674 whole entry, looked up): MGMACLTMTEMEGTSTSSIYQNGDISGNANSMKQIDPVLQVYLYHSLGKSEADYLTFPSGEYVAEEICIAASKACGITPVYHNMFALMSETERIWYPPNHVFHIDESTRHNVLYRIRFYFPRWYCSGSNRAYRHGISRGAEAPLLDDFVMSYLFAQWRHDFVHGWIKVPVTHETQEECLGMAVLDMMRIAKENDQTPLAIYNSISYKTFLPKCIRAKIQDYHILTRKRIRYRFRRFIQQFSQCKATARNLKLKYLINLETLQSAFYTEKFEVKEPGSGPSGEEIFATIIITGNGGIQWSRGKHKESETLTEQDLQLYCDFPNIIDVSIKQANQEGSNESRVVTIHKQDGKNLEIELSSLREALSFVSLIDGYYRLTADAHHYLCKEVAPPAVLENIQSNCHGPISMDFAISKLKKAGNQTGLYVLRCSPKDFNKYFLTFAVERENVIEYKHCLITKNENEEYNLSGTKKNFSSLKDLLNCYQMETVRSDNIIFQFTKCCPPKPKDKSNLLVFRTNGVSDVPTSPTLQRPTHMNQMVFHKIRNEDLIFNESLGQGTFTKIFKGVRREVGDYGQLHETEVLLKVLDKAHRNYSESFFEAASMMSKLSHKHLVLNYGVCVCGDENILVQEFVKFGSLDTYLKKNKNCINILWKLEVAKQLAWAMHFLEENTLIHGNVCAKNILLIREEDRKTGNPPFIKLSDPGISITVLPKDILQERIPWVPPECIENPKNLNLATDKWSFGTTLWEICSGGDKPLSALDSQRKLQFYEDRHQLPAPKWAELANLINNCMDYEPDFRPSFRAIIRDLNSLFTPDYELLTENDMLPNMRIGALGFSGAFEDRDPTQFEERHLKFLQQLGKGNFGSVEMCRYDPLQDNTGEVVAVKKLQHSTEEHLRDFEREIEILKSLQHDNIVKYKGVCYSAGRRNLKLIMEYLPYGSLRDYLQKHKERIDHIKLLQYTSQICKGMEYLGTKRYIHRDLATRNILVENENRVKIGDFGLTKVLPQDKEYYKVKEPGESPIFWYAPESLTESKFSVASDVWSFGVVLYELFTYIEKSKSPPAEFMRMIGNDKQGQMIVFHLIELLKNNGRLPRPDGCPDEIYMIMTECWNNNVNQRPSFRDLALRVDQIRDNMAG
FGFR3, sequence (P22607 whole entry, looked up): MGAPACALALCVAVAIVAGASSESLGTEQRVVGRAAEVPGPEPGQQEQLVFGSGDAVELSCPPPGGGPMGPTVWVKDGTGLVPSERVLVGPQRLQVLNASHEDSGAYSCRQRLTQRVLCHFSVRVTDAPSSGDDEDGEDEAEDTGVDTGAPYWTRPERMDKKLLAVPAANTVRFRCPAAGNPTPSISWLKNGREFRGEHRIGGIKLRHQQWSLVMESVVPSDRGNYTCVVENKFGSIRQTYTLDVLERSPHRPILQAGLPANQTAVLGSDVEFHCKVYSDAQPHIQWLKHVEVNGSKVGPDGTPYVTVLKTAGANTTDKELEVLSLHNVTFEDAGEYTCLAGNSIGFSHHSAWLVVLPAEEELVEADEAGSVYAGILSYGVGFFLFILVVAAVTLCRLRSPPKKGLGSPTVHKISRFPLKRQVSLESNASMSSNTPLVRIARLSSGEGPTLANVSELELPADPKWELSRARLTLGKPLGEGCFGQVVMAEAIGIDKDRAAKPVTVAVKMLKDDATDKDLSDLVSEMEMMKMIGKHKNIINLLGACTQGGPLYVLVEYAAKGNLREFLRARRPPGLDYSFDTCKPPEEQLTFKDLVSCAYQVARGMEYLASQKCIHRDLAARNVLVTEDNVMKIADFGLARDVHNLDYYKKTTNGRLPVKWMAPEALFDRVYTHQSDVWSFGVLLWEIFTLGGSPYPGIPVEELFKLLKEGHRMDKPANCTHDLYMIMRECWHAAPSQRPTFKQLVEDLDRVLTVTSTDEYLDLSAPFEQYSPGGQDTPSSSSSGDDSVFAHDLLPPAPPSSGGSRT
EPHB1, sequence (P54762 whole entry, looked up): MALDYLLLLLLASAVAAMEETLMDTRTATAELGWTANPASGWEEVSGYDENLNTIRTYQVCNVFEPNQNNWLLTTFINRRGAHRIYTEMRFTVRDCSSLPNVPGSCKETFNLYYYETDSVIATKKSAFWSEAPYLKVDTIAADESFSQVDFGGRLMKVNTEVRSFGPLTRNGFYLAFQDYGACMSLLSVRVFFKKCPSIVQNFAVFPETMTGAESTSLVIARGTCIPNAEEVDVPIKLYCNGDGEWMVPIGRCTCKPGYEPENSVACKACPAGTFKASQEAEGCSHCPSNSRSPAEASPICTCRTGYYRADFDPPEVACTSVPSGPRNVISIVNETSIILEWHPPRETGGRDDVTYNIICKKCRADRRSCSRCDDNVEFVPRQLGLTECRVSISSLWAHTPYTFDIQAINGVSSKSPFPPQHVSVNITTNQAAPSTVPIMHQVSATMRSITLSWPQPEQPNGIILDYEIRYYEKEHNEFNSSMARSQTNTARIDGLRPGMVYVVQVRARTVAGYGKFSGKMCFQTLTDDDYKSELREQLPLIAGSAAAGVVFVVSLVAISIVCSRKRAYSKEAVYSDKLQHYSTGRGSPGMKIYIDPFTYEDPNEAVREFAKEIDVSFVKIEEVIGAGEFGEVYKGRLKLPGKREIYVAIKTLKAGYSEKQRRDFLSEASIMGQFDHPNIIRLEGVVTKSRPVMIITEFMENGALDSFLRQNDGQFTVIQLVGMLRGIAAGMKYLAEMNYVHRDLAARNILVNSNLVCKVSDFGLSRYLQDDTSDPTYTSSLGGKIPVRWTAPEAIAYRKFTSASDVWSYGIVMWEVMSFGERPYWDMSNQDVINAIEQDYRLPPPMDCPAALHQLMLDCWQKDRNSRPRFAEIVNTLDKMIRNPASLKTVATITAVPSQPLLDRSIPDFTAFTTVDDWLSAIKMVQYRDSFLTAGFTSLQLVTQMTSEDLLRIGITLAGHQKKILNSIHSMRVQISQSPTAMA
Fes, sequence (P07332 whole entry, looked up): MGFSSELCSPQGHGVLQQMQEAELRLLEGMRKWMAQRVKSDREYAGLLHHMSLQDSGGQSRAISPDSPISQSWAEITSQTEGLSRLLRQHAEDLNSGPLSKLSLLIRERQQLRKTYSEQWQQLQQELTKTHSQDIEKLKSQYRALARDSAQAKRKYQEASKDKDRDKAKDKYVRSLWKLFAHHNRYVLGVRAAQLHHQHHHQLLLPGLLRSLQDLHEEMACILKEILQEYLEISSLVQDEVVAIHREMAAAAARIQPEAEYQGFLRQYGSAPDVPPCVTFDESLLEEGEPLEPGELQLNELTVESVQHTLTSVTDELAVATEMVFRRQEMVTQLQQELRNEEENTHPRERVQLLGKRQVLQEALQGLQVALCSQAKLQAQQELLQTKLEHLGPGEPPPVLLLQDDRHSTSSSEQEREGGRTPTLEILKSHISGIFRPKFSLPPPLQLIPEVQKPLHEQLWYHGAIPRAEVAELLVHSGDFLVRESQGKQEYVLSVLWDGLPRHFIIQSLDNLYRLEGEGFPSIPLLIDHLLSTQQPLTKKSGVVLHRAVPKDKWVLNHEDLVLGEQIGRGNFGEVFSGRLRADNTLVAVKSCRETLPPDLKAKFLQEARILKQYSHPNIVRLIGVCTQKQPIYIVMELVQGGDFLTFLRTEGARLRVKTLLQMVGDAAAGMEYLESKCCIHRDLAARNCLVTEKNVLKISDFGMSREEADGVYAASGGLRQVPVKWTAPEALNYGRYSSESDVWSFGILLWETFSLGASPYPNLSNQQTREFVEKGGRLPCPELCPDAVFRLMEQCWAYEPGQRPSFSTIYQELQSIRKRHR
Fyn, sequence (P06241 whole entry, looked up): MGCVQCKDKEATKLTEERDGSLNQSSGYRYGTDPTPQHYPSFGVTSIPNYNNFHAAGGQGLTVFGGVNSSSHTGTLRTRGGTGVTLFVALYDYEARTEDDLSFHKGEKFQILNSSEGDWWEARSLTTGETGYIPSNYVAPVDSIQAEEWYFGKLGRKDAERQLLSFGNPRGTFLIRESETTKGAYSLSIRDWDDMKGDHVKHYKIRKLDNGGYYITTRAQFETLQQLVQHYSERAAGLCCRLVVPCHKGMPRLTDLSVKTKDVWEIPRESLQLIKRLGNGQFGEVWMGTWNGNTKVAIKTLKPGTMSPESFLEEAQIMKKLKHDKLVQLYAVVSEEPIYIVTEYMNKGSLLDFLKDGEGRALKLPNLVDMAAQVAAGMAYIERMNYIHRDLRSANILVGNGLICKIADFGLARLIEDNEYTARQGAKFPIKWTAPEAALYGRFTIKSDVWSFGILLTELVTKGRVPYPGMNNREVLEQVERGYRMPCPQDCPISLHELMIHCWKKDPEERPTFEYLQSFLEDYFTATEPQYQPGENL
Hck, sequence (P08631 whole entry, looked up): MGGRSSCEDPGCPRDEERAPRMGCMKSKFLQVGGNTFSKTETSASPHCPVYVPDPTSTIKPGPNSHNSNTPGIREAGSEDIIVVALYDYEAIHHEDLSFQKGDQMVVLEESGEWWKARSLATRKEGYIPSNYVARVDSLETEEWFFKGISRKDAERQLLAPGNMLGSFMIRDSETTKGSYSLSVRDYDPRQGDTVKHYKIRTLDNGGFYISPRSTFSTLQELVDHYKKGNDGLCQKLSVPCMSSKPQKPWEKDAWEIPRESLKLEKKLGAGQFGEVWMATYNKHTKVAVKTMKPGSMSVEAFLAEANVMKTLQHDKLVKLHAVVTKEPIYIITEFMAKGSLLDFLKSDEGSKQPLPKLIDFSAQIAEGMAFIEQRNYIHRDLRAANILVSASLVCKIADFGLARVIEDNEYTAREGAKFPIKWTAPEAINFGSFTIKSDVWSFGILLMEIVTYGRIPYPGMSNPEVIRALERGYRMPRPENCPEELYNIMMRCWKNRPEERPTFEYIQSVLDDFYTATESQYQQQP

Row | Sequence | SH2 binding enrichment (Grb2 SH2) | SH2 binding enrichment (SHP2-C SH2) | SH2 binding enrichment (c-Src SH2) | phosphorylation enrichment (AncSZ) | phosphorylation enrichment (EPHB1) | phosphorylation enrichment (EPHB2) | phosphorylation enrichment (FGFR1) | phosphorylation enrichment (FGFR3) | phosphorylation enrichment (Fer (mouse)) | phosphorylation enrichment (Fes) | phosphorylation enrichment (Fyn) | phosphorylation enrichment (Hck) | phosphorylation enrichment (Jak2) | phosphorylation enrichment (MERTK) | phosphorylation enrichment (c-Abl (mouse)) | phosphorylation enrichment (c-Src)
1 | TFEYRYLEDRD [CNOT3_Y746] | 0.76 | 0.81 | 1.01 | 1.16 | 0.623 | 0.504 | 0.935 | 0.848 | 0.472 | 1.35 | 0.545 | 0.534 | 1.02 | 0.493 | 0.827 | 0.537
2 | TINPIHEHVGF [CHN1_Y143_Y143H_YF] | 0.813 | 0.757 | 0.519 | 0.433 | 0.321 | 0.346 | 0.393 | 0.441 | 0.397 | 0.619 | 0.335 | 0.299 | 0.429 | 0.328 | 0.477 | 0.339
3 | TLKDVYDDGKY [RPS6KA3_Y483] | 0.85 | 0.737 | 0.528 | 1.02 | 0.51 | 0.497 | 0.557 | 0.64 | 0.506 | 1.12 | 0.58 | 0.706 | 0.909 | 0.557 | 0.758 | 0.62
4 | TLKVGYTEKQR [EPHA3_Y659] | 1.08 | 0.714 | 0.486 | 0.417 | 0.259 | 0.299 | 0.404 | 0.351 | 0.386 | 0.378 | 0.27 | 0.353 | 0.407 | 0.322 | 0.369 | 0.328
5 | TPIFPYLLPKS [PLD2_Y580_T577I_YF] | 0.877 | 0.451 | 0.393 | 0.632 | 0.467 | 0.463 | 0.825 | 1.57 | 0.551 | 0.685 | 0.799 | 0.64 | 0.723 | 0.538 | 0.7 | 0.489
6 | TQKLAYVELQQ [CENPF_Y700_M701V] | 0.874 | 1.75 | 0.932 | 1.07 | 0.507 | 0.561 | 0.754 | 0.643 | 0.449 | 1 | 0.445 | 0.453 | 0.904 | 0.395 | 1.03 | 0.525
7 | TSNQEYLFLSM [FGFR1_Y766_D768Y_YF] | 0.877 | 0.563 | 0.358 | 1.21 | 0.765 | 0.721 | 5.2 | 3.32 | 0.557 | 1.09 | 0.574 | 0.572 | 1.06 | 0.469 | 0.813 | 0.488
8 | TSPKSCPSQKH [CAP2_Y316_Y316C] | 0.971 | 0.967 | 0.759 | 0.546 | 0.385 | 0.361 | 0.432 | 0.521 | 0.385 | 0.619 | 0.461 | 0.472 | 0.73 | 0.476 | 0.688 | 0.415

Second part, led by results:

Row | SH2 binding enrichment (Grb2 SH2) | SH2 binding enrichment (SHP2-C SH2) | SH2 binding enrichment (c-Src SH2) | Sequence | phosphorylation enrichment (AncSZ) | phosphorylation enrichment (EPHB1) | phosphorylation enrichment (EPHB2) | phosphorylation enrichment (FGFR1) | phosphorylation enrichment (FGFR3) | phosphorylation enrichment (Fer (mouse)) | phosphorylation enrichment (Fes) | phosphorylation enrichment (Fyn) | phosphorylation enrichment (Hck) | phosphorylation enrichment (Jak2) | phosphorylation enrichment (MERTK) | phosphorylation enrichment (c-Abl (mouse)) | phosphorylation enrichment (c-Src)
9 | 1 | 0.625 | 0.46 | TESALYGCTIL [MAP3K21_Y724_V728I] | 1.17 | 0.68 | 0.989 | 0.5 | 1.19 | 4.72 | 1.62 | 6 | 4.18 | 1.65 | 1.57 | 1.59 | 6.06
10 | 0.905 | 1.01 | 0.566 | TFAVSYLPDMS [FLNC_Y1602_T1599A_YF] | 0.939 | 0.598 | 0.392 | 0.5 | 0.816 | 0.439 | 1.21 | 0.466 | 0.5 | 0.741 | 0.441 | 0.61 | 0.378
11 | 0.886 | 1.15 | 0.446 | TKDTIYKQPMF [GBA_Y451_F450I] | 0.704 | 0.503 | 0.439 | 0.406 | 0.57 | 0.391 | 0.821 | 0.502 | 0.8 | 0.907 | 0.499 | 17.4 | 0.6
12 | 0.646 | 0.681 | 0.372 | TLARLYHPDST [LRIG1_Y1029] | 0.508 | 0.422 | 0.549 | 0.344 | 0.429 | 0.364 | 0.743 | 0.575 | 0.416 | 0.609 | 0.355 | 0.672 | 0.302
13 | 1.06 | 0.954 | 0.614 | TLEKYYFAFPG [SLC1A1_Y51_F50Y] | 1.75 | 7.36 | 11.1 | 14.6 | 12 | 0.632 | 1.09 | 4.5 | 3.38 | 8.54 | 11.5 | 9.74 | 6.16
14 | 0.773 | 0.593 | 0.493 | TLERHYKELQA [SPTBN2_Y834_E835K] | 0.713 | 0.363 | 0.546 | 0.449 | 0.509 | 0.415 | 0.787 | 0.446 | 0.375 | 0.704 | 0.571 | 0.612 | 0.472
15 | 0.836 | 0.488 | 0.491 | TLQSMSGCDVG [HLA-B_Y123_Y123S] | 0.677 | 0.488 | 0.601 | 0.48 | 0.932 | 0.499 | 0.791 | 0.42 | 0.482 | 1.38 | 0.421 | 0.536 | 0.406
16 | 0.814 | 1.83 | 1.93 | TLSGIYQYSIA [FOXL2_Y81_I84S] | 1.24 | 2.73 | 1.98 | 0.952 | 1.03 | 8.33 | 0.899 | 4.22 | 3.56 | 0.65 | 6.7 | 1.53 | 4.21
17 | 0.833 | 0.548 | 0.535 | TSKLSYLDPRI [TOP1_Y723_N722S] | 0.639 | 0.607 | 0.427 | 0.611 | 0.592 | 0.619 | 0.679 | 0.435 | 0.446 | 0.939 | 0.539 | 0.567 | 0.479
